The results in this text go back to patent US20150344570A1 (published 2015).

Experiment [1] deals with T1, FcγRIa extracellular domain with C-terminal His tag (human, UniProt P12314 16-292).
T1 construct: extracellular domain; soluble analyte in Biacore; also called FcgRI; not shown: His tag at the C terminus
As to the kind of experiment: SPR, binding relative to GpH7-A5/GpH7-B3/GpL16-k0 = 100.

The target of experiment [2] is T2, FcγRIIb extracellular domain with C-terminal His tag (human, UniProt P31994 43-217).
T2 construct: extracellular domain; soluble analyte in Biacore; also called FcgRIIb; not shown: His tag at the C terminus
T2 sequence (looked up): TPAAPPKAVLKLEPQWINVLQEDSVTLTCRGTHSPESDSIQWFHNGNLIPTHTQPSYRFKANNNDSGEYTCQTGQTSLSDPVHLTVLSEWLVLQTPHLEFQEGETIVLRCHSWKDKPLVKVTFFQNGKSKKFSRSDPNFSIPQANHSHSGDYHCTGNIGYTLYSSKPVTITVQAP
The description is as above.

T1 sequence (P12314 16-292): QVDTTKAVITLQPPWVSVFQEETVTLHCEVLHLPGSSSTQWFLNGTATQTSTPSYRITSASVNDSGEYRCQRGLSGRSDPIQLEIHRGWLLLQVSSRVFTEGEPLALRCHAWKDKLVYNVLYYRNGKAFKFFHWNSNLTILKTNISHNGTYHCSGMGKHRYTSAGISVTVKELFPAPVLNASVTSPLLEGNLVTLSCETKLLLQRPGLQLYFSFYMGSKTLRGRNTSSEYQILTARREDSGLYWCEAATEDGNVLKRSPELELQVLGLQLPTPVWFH

B1: GpH7-A5/GpH7-B3 variant A330_18N/GpL16-k0 (antibody, human IgG1, kappa)
heavy 1: not shown
heavy 2: not shown
light: DIVMTQSPLSLPVTPGEPASISCQASESLVHSNRNTYLHWYLQKPGQSPQLLIYKVSNRFSGVPDRFSGSGSGTDFTLKISRVEAEDVGVYYCSQNTHVPPTFGQGTKVEIERTVAAPSVFIFPPSDEQLKSGTASVVCLLNNFYPREAKVQWKVDNALQSGNSQESVTEQDSKDSTYSLSSTLTLSKADYEKHKVYACEVTHQGLSSPVTKSFNRGEC
notes: change in the GpH7-B3 H chain only; also called He Ab
In the case of B1, the He/Con_1a in experiment [1] was 106 % of control. The He/Con_2b in experiment [2] was 63.7 % of control.

B2: GpH7-A5/GpH7-B3 variant E333_07I/GpL16-k0 (antibody, human IgG1, kappa)
heavy 1: not shown
heavy 2: not shown
light: DIVMTQSPLSLPVTPGEPASISCQASESLVHSNRNTYLHWYLQKPGQSPQLLIYKVSNRFSGVPDRFSGSGSGTDFTLKISRVEAEDVGVYYCSQNTHVPPTFGQGTKVEIERTVAAPSVFIFPPSDEQLKSGTASVVCLLNNFYPREAKVQWKVDNALQSGNSQESVTEQDSKDSTYSLSSTLTLSKADYEKHKVYACEVTHQGLSSPVTKSFNRGEC
notes: as for B1
As to B2, the He/Con_1a in experiment [1] was 102 % of control. The He/Con_2b in experiment [2] was 96.2 % of control.

B3: GpH7-A5/GpH7-B3 variant A330_14T/GpL16-k0 (antibody, human IgG1, kappa)
heavy 1: not shown
heavy 2: not shown
light: DIVMTQSPLSLPVTPGEPASISCQASESLVHSNRNTYLHWYLQKPGQSPQLLIYKVSNRFSGVPDRFSGSGSGTDFTLKISRVEAEDVGVYYCSQNTHVPPTFGQGTKVEIERTVAAPSVFIFPPSDEQLKSGTASVVCLLNNFYPREAKVQWKVDNALQSGNSQESVTEQDSKDSTYSLSSTLTLSKADYEKHKVYACEVTHQGLSSPVTKSFNRGEC
notes: as for B1
With B3, the He/Con_1a in experiment [1] was 105 % of control. The He/Con_2b in experiment [2] was 77.9 % of control.

B4: GpH7-A5/GpH7-B3 variant E333_12R/GpL16-k0 (antibody, human IgG1, kappa)
heavy 1: not shown
heavy 2: not shown
light: DIVMTQSPLSLPVTPGEPASISCQASESLVHSNRNTYLHWYLQKPGQSPQLLIYKVSNRFSGVPDRFSGSGSGTDFTLKISRVEAEDVGVYYCSQNTHVPPTFGQGTKVEIERTVAAPSVFIFPPSDEQLKSGTASVVCLLNNFYPREAKVQWKVDNALQSGNSQESVTEQDSKDSTYSLSSTLTLSKADYEKHKVYACEVTHQGLSSPVTKSFNRGEC
notes: as for B1
Regarding B4, in experiment [1], the He/Con_1a is 102 % of control. The He/Con_2b in experiment [2] was 80.4 % of control.

B5: GpH7-A5/GpH7-B3 variant E333_09D/GpL16-k0 (antibody, human IgG1, kappa)
heavy 1: not shown
heavy 2: not shown
light: DIVMTQSPLSLPVTPGEPASISCQASESLVHSNRNTYLHWYLQKPGQSPQLLIYKVSNRFSGVPDRFSGSGSGTDFTLKISRVEAEDVGVYYCSQNTHVPPTFGQGTKVEIERTVAAPSVFIFPPSDEQLKSGTASVVCLLNNFYPREAKVQWKVDNALQSGNSQESVTEQDSKDSTYSLSSTLTLSKADYEKHKVYACEVTHQGLSSPVTKSFNRGEC
notes: as for B1
Take B5: the He/Con_1a in experiment [1] is 104 % of control. Besides, the He/Con_2b in experiment [2] is 94.3 % of control.

B6: GpH7-A5/GpH7-B3 variant E333_05P/GpL16-k0 (antibody, human IgG1, kappa)
heavy 1: not shown
heavy 2: not shown
light: DIVMTQSPLSLPVTPGEPASISCQASESLVHSNRNTYLHWYLQKPGQSPQLLIYKVSNRFSGVPDRFSGSGSGTDFTLKISRVEAEDVGVYYCSQNTHVPPTFGQGTKVEIERTVAAPSVFIFPPSDEQLKSGTASVVCLLNNFYPREAKVQWKVDNALQSGNSQESVTEQDSKDSTYSLSSTLTLSKADYEKHKVYACEVTHQGLSSPVTKSFNRGEC
notes: as for B1
Take B6: in experiment [1], the He/Con_1a was 102 % of control. Besides, the He/Con_2b in experiment [2] is 97.7 % of control.

B7: GpH7-A5/GpH7-B3 variant E333_01G/GpL16-k0 (antibody, human IgG1, kappa)
heavy 1: not shown
heavy 2: not shown
light: DIVMTQSPLSLPVTPGEPASISCQASESLVHSNRNTYLHWYLQKPGQSPQLLIYKVSNRFSGVPDRFSGSGSGTDFTLKISRVEAEDVGVYYCSQNTHVPPTFGQGTKVEIERTVAAPSVFIFPPSDEQLKSGTASVVCLLNNFYPREAKVQWKVDNALQSGNSQESVTEQDSKDSTYSLSSTLTLSKADYEKHKVYACEVTHQGLSSPVTKSFNRGEC
notes: as for B1
Turning to B7, in experiment [1], the He/Con_1a was 103 % of control. Further, in experiment [2], the He/Con_2b was 81.4 % of control.

B8: GpH7-A5/GpH7-B3 variant E333_11K/GpL16-k0 (antibody, human IgG1, kappa)
heavy 1: not shown
heavy 2: not shown
light: DIVMTQSPLSLPVTPGEPASISCQASESLVHSNRNTYLHWYLQKPGQSPQLLIYKVSNRFSGVPDRFSGSGSGTDFTLKISRVEAEDVGVYYCSQNTHVPPTFGQGTKVEIERTVAAPSVFIFPPSDEQLKSGTASVVCLLNNFYPREAKVQWKVDNALQSGNSQESVTEQDSKDSTYSLSSTLTLSKADYEKHKVYACEVTHQGLSSPVTKSFNRGEC
notes: as for B1
In the case of B8, the He/Con_1a in experiment [1] is 102 % of control. For the same molecule, the He/Con_2b in experiment [2] was 80.6 % of control.

B9: GpH7-A5/GpH7-B3 variant A330_15Y/GpL16-k0 (antibody, human IgG1, kappa)
heavy 1: not shown
heavy 2: not shown
light: DIVMTQSPLSLPVTPGEPASISCQASESLVHSNRNTYLHWYLQKPGQSPQLLIYKVSNRFSGVPDRFSGSGSGTDFTLKISRVEAEDVGVYYCSQNTHVPPTFGQGTKVEIERTVAAPSVFIFPPSDEQLKSGTASVVCLLNNFYPREAKVQWKVDNALQSGNSQESVTEQDSKDSTYSLSSTLTLSKADYEKHKVYACEVTHQGLSSPVTKSFNRGEC
notes: as for B1
Regarding B9, the He/Con_1a in experiment [1] was 105 % of control. The He/Con_2b in experiment [2] is 95 % of control.

B10: GpH7-A5/GpH7-B3 variant A330_16H/GpL16-k0 (antibody, human IgG1, kappa)
heavy 1: not shown
heavy 2: not shown
light: DIVMTQSPLSLPVTPGEPASISCQASESLVHSNRNTYLHWYLQKPGQSPQLLIYKVSNRFSGVPDRFSGSGSGTDFTLKISRVEAEDVGVYYCSQNTHVPPTFGQGTKVEIERTVAAPSVFIFPPSDEQLKSGTASVVCLLNNFYPREAKVQWKVDNALQSGNSQESVTEQDSKDSTYSLSSTLTLSKADYEKHKVYACEVTHQGLSSPVTKSFNRGEC
notes: as for B1
With B10, the He/Con_1a in experiment [1] is 106 % of control. The He/Con_2b in experiment [2] was 87.6 % of control.
